What all share (test): cell-based or functional assay
Experiment [1] deals with human CXCR4 (on U87 human astroglioma cells stably transduced with human CXCR4) (human) (UniProt P61073).
Experiment [2] concerns the target HIV-1 89.6 Env glycan mutant N7 (N197Q) (HIV-1 isolate 89.6) (UniProt Q73372).
For experiment [3], the target named is HIV-1 89.6 Env triple glycan mutant N67V3 (N6, N7 and NV3: N187Q, N197Q, N301Q) (HIV-1 isolate 89.6) (UniProt Q73372).
Experiment [4] has as its target HIV-1 89.6 Env glycan mutant NV3 (N301Q) (HIV-1 isolate 89.6) (UniProt Q73372).

UniProt P61073, sequence (P61073 whole entry): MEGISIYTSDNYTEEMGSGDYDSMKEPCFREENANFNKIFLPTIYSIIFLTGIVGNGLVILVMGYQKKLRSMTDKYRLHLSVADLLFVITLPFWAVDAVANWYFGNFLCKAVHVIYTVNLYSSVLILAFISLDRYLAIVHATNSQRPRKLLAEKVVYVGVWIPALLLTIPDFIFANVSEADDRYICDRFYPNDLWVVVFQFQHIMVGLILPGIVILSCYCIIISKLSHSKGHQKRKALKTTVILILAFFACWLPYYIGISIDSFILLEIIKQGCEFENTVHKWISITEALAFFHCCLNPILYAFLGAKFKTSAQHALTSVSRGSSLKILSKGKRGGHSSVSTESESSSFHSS

In turn, “HIV-1 89.6 Env glycan mutant N7 (N197Q) (from UniProt Q73372 32-853)” displayed a relative infectivity of pseudotyped virus in U87-CXCR4 cells in the absence of CD4 (vs WT virus) in experiment [1] of 10 fold. Regarding “recombinant sCD4-Ig (from UniProt P01730 26-204) (Fc fusion)”, the enhancement in neutralization sensitivity compared to wild-type 89.6 in experiment [2] stood at 50 fold. With “HIV-1 89.6 Env glycan mutant NV3 (N301Q) (from UniProt Q73372 32-853)”, the increase in infectivity in CD4-negative cells as compared to WT Env in experiment [1] lay in the range of 2 to 3 fold.

With monoclonal antibody 4E10, the increase in neutralization sensitivity (vs WT) in experiment [2] and in experiment [3] was 3 fold throughout.

Take monoclonal antibody 17b: the sensitivity to 17b without sCD4, compared to the WT or the N6 and NV3 mutants in the presence of sCD4 in experiment [2] and in experiment [3] was 30 fold in each case. For monoclonal antibody IgG1b12, the enhancement in neutralization sensitivity compared to wild-type 89.6 in experiment [2] came out at 60 fold. Regarding monoclonal antibody 2G12, in experiment [2], the increase in neutralization sensitivity (vs WT) came to 3 fold. Further, the decrease in neutralization sensitivity (vs WT) in experiment [4] fell in the range of 2 to 3 fold.

For the origin of these results see US20090175889A1.
